Experiment [1] deals with T1, HIV-1 Peptide 1904 (HIV-1).
T1 construct: also called HIV peptide 1904
In words: MATRIX screen of GST-PDZ array, modified G assay ELISA; 'Intensity of Hit'.
Procedure: (§1) The primary MATRIX screen against all PDZ proteins in the library was performed under pre-incubation conditions, which are a modification of the G assay. A pre-incubation assay incubates the peptide with the HRP-streptavidin before addition of the mixture to the PDZ-coated plate. The subsequent titrations of the peptide against the PDZs of interest were performed under normal ELISA G assay conditions. In normal conditions the peptide is incubated on the PDZ coated plate before the later addition of the HRP-streptavidin.
(§2) Prepare peptides in half of volume need with double of desired concentration. […] Dilute HRP (1:1000) in another half of volume (same volume with peptide) then mix with peptides. […] Incubate the peptide-HRP mixtures for 20 minutes at RT 8. Wash plate 3× with cold PBS* 9. Add peptide-HRP mixtures at 50 μl per well (write time on plate) 10. […] Turn on plate reader and prepare files 12. Promptly wash plate 5× with room temperature PBS 13. Add 100 μl/well TMB substrate (write time on plate) 14. Incubate in dark at room temp for a maximum of 30 minutes 15. Stop reaction with 100 μl of 0.18M H₂SO₄, 30 min. after adding TMB 16. Take last reading at 450 nm soon after stopping reaction

Experiment [2] concerns the target T2, HIV-1 Peptide 1905 (HIV-1).
T2 construct: also called HIV peptide 1905
The experiment is described as above.
Procedure: as §1, §2

Experiment [3] deals with T1, HIV-1 Peptide 1904. Description: modified G assay ELISA (FIG. 2C): peptide pre-incubated with streptavidin-HRP, titrated on GST-PDZ plate.
Experiment [4] addresses T2, HIV-1 Peptide 1905. In words: modified G assay ELISA, third experiment (text prints 'FIG. 3C' a second time, read as FIG. 5C).
The target of experiment [5] is T2, HIV-1 Peptide 1905. In words: G assay ELISA (FIG. 4C): GST-PDZ on anti-GST plate, biotinylated peptide titrated, streptavidin-HRP.
Experiment [6] addresses T2, HIV-1 Peptide 1905. In words: modified G assay ELISA (FIG. 3C): peptide pre-incubated with streptavidin-HRP, titrated on GST-PDZ plate.
Experiment [7] deals with T1, HIV-1 Peptide 1904. Description: G assay ELISA (FIG. 1C): GST-PDZ on anti-GST plate, biotinylated peptide titrated, streptavidin-HRP.

B1: MAGI1 d1, GST fusion (other)
chain: PSELKGKFIHTKLRKSSRGFGFTVVGGDEPDEFLQIKSLVLDGPAALDGKMETGDVIVSVNDTCVLGHTHAQVVKIFQSIPIGASVDLELCRGYPLPFDPDGIHRD
notes: also called MAGI1 (PDZ #1)
For the molecule B1, the binding result with HIV-1 Peptide 1904 [1] is on record as “binds”.

B2: KIAA0316, GST fusion (other)
chain: IPPAPRKVEMRRDPVLGFGFVAGSEKPVVVRSVTPGGPSEGKLIPGDQIVMINDEPVSAAPRERVIDLVRSCKESILLTVIQPYPSPKSEFIVTD
On to B2, for which the binding result with HIV-1 Peptide 1904 [1] is “binds”.

B3: KIAA0807 MAST2, GST fusion (other)
chain: ISALGSMRPPIIIHRAGKKYGFTLRAIRVYMGDSDVYTVHHMVWHVEDGGPASEAGLRQGDLITHVNGEPVHGLVHTEVVELILKSGNKVAISTTPLENSS
As to B3, the binding result in the experiment with HIV-1 Peptide 1904 [1] and with HIV-1 Peptide 1905 [2] was “binds” in each case.

B4: AIPC d1, GST fusion (other)
chain: LIRPSVISIIGLYKEKGKGLGFSIAGGRDCIRGQMGIFVKTIFPNGSAAEDGRLKEGDEILDVNGIPIKGLTFQEAIHTFKQIRSGLFVLTVRTKLVSPSLTNSS
notes: also called AIPC (PDZ #1)
In the case of B4, the binding result with HIV-1 Peptide 1904 [1] was “binds”.

B5: PICK1 F.L., GST fusion (other)
chain: MFADLDYDIEEDKLGIPTVPGKVTLQKDAQNLIGISIGGGAQYCPCLYIVQVFDNTPAALDGTVAAGDEITGVNGRSIKGKTKVEVAKMIQEVKGEVTIHYNKLQADPKQGMSLDIVLKKVKHRLVENMSSGTADALGLSRAILCNDGLVKRLEELERTAELYKGMTEHTKNLLRAFYELSQTHRAFGDVFSVIGVREPQPAASEAFVKFADAHRSIEKFGIRLLKTIKPMLTDLNTYLNKAIPDTRLTIKKYLDVKFEYLSYCLKVKEMDDEEYSCIALGEPLYRVSTGNYEYRLILRCRQEARARFSQMRKDVLEKMELLDQKHVQDIVFQLQRLVSTMSKYYNDCYAVLRDADVFPIEVDLAHTTLAYGLNQEEFTDGEEEEEEEDTAAGEPSRDTRGAAGPLDKGGSWCDS
Consider B5, for which the binding result with HIV-1 Peptide 1905 [2] was “binds”.

B6: INADL d3, GST fusion (other)
chain: NVELVRKDGQSLGIRIVGYVGTSHTGEASGIYVKSIIPGSAAYHNGHIQVNDKIVAVDGVNIQGFANHDVVEVLRNAGQVVHLTLVRRK
notes: also called INADL (PDZ #3)
On to B6, for which, in the experiment with HIV-1 Peptide 1904 [1], the binding result is recorded as “binds”.

B7: KIAA0751 RIM2, GST fusion (other)
chain: TLNEEHSHSDKHPVTWQPSKDGDRLIGRILLNKRLKDGSVPRDSGAMLGLKVVGGKMTESGRLCAFITKVKKGSLADTVGHLRPGDEVLEWNGRLLQGATFEEVYNIILESKPEPQVELVVSRPIG
Regarding B7, the EC50 with HIV-1 Peptide 1904 [3] turned out to be 30 nM; with HIV-1 Peptide 1905 [4], 68 nM; in the experiment with HIV-1 Peptide 1905 [5], 182 nM; with HIV-1 Peptide 1905 [6], 14 nM; with HIV-1 Peptide 1904 [7], 410 nM.

B8: EZRIN Binding Protein 50 PDZ #1, GST fusion (other)
chain: LCCLEKGPNGYGFHLHGEKGKLGQYIRLVEPGSPAEKAGLLAGDRLVEVNGENVEKETHQQVVSRIRAALNAVRLLVVDPE
notes: also called EBP50 d1; EBP50 (PDZ #1)
B8: in the experiment with HIV-1 Peptide 1905 [2], the binding result was “binds”.

B9: KIAA1284, GST fusion (other)
chain: KDVNVYVNPKKLTVIKAKEQLKLLEVLVGIIHQTKWSWRRTGKQGDGERLVVHGLLPGGSAMKSGQVLIGDVLVAVNDVDVTTENIERVLSCIPGPMQVKLTFENAYDVKRET
As for B9, the binding result with HIV-1 Peptide 1904 [1] and with HIV-1 Peptide 1905 [2] was “binds” each time.

Values taken from US20070014803A1 (ARBOR VITA, published 2007).
